Paper PMC3189723

Target: ribosome nascent chain complex RNC_(1A9L) labeled with Cm on the nascent chain (1A9L 56 amb)
Assay: FRET or BRET

“BODIPY-Fl labeled Signal Recognition Particle (SRP; protein component Ffh) (from UniProt P0AGD7 1-453) (complex)” gave a Kd of 0.73 nM.
